Data: the supplement of paper PMC10219994
± gives the standard deviation of the averaged measurements.

B1: library; a variant is named by its letters at N, in order (parent)
chain: GAGACCGCAACTGAAAAGTTGTGGNNNNNATAGTGAGTCGCTGCCTGCAAAGACACAACT

Variants of: B1
Assay: ligation selection enrichment (abundance after / before one-round selection) (fold); higher = more template-directed ligation activity
Conditions: with T7Psub CACGGAUGCUAAUACGACUCACUAUA; MgCl2 25 mM; 42 °C; 4 h; pH 8.5
Procedure: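 Lib-N5 ligase ribozyme library: five randomized core nucleotides (including the GGA motif of N8-1) within the fixed N8-1 ribozyme flanks, transcribed by T7 RNA polymerase with a 5'-triphosphate. The library (0.75 uM) was reacted with substrate T7Psub (6 uM) in 50 mM EPPS pH 8.5 with 25 mM MgCl2 at 42 C for 4 h. Ligated products were PAGE-purified, reverse transcribed and MiSeq sequenced; enrichment = abundance after selection / abundance before selection, with two independent replicates. The full transcript is built from the printed template flanks.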

Which ligation selection enrichment does the source give for GAGACCGCAACTGAAAAGTTGTGGCCCTAATAGTGAGTCGCTGCCTGCAAAGACACAACT [CCCTA] here?
Its ligation selection enrichment is 0.186 ± 0.0061.

With GAGACCGCAACTGAAAAGTTGTGGGCGGAATAGTGAGTCGCTGCCTGCAAAGACACAACT [GCGGA] as the variant, how does the ligation selection enrichment read?
The ligation selection enrichment was 0.334 ± 0.035.

Which ligation selection enrichment does the source give for GAGACCGCAACTGAAAAGTTGTGGCCCGTATAGTGAGTCGCTGCCTGCAAAGACACAACT [CCCGT] here?
Its ligation selection enrichment is 0.207 ± 0.059.

GAGACCGCAACTGAAAAGTTGTGGCCCGCATAGTGAGTCGCTGCCTGCAAAGACACAACT [CCCGC] was tested. Which ligation selection enrichment did it give?
Its ligation selection enrichment is 0.163 ± 0.053.

How did the ligation selection enrichment turn out when GAGACCGCAACTGAAAAGTTGTGGCCCGGATAGTGAGTCGCTGCCTGCAAAGACACAACT [CCCGG] was run?
The ligation selection enrichment was 0.327 ± 0.049.

Which ligation selection enrichment does the source give for GAGACCGCAACTGAAAAGTTGTGGCCCGAATAGTGAGTCGCTGCCTGCAAAGACACAACT [CCCGA] here?
The ligation selection enrichment was 0.405 ± 0.013.

How did the ligation selection enrichment turn out when GAGACCGCAACTGAAAAGTTGTGGGCCGAATAGTGAGTCGCTGCCTGCAAAGACACAACT [GCCGA] was run?
The ligation selection enrichment was 1.35 ± 0.035.

With GAGACCGCAACTGAAAAGTTGTGGGCCGTATAGTGAGTCGCTGCCTGCAAAGACACAACT [GCCGT] as the variant, how does the ligation selection enrichment read?
Its ligation selection enrichment is 0.214 ± 0.082.

For GAGACCGCAACTGAAAAGTTGTGGGCCGGATAGTGAGTCGCTGCCTGCAAAGACACAACT [GCCGG], which ligation selection enrichment is on record?
The ligation selection enrichment was 0.313 ± 0.024.

For GAGACCGCAACTGAAAAGTTGTGGGCCGCATAGTGAGTCGCTGCCTGCAAAGACACAACT [GCCGC], which ligation selection enrichment is on record?
Its ligation selection enrichment is 0.205 ± 0.036.

Which ligation selection enrichment does the source give for GAGACCGCAACTGAAAAGTTGTGGTCGCAATAGTGAGTCGCTGCCTGCAAAGACACAACT [TCGCA] here?
Its ligation selection enrichment is 0.269 ± 0.054.

Which ligation selection enrichment does the source give for GAGACCGCAACTGAAAAGTTGTGGTCGCTATAGTGAGTCGCTGCCTGCAAAGACACAACT [TCGCT] here?
Its ligation selection enrichment is 0.299 ± 0.075.

How did the ligation selection enrichment turn out when GAGACCGCAACTGAAAAGTTGTGGTCGCGATAGTGAGTCGCTGCCTGCAAAGACACAACT [TCGCG] was run?
The ligation selection enrichment was 0.485 ± 0.036.

Which ligation selection enrichment does the source give for GAGACCGCAACTGAAAAGTTGTGGTCGCCATAGTGAGTCGCTGCCTGCAAAGACACAACT [TCGCC] here?
Its ligation selection enrichment is 0.155 ± 0.028.

For GAGACCGCAACTGAAAAGTTGTGGACGCGATAGTGAGTCGCTGCCTGCAAAGACACAACT [ACGCG], which ligation selection enrichment is on record?
The ligation selection enrichment was 0.622 ± 0.021.

Which ligation selection enrichment does the source give for GAGACCGCAACTGAAAAGTTGTGGACGCAATAGTGAGTCGCTGCCTGCAAAGACACAACT [ACGCA] here?
Its ligation selection enrichment is 0.248 ± 0.016.

With GAGACCGCAACTGAAAAGTTGTGGACGCCATAGTGAGTCGCTGCCTGCAAAGACACAACT [ACGCC] as the variant, how does the ligation selection enrichment read?
The ligation selection enrichment was 0.153 ± 0.035.

Which ligation selection enrichment does the source give for GAGACCGCAACTGAAAAGTTGTGGACGCTATAGTGAGTCGCTGCCTGCAAAGACACAACT [ACGCT] here?
The ligation selection enrichment was 0.449 ± 0.15.

How did the ligation selection enrichment turn out when GAGACCGCAACTGAAAAGTTGTGGACCTTATAGTGAGTCGCTGCCTGCAAAGACACAACT [ACCTT] was run?
Its ligation selection enrichment is 0.117 ± 0.004.

For GAGACCGCAACTGAAAAGTTGTGGACCTCATAGTGAGTCGCTGCCTGCAAAGACACAACT [ACCTC], which ligation selection enrichment is on record?
Its ligation selection enrichment is 0.0933 ± 0.036.

For GAGACCGCAACTGAAAAGTTGTGGACCTAATAGTGAGTCGCTGCCTGCAAAGACACAACT [ACCTA], which ligation selection enrichment is on record?
The ligation selection enrichment was 0.18 ± 0.017.

How did the ligation selection enrichment turn out when GAGACCGCAACTGAAAAGTTGTGGACCTGATAGTGAGTCGCTGCCTGCAAAGACACAACT [ACCTG] was run?
The ligation selection enrichment was 0.4917 ± 0.0012.

With GAGACCGCAACTGAAAAGTTGTGGTCCATATAGTGAGTCGCTGCCTGCAAAGACACAACT [TCCAT] as the variant, how does the ligation selection enrichment read?
Its ligation selection enrichment is 0.303 ± 0.096.

Which ligation selection enrichment does the source give for GAGACCGCAACTGAAAAGTTGTGGACGACATAGTGAGTCGCTGCCTGCAAAGACACAACT [ACGAC] here?
The ligation selection enrichment was 1.41 ± 0.032.

Which ligation selection enrichment does the source give for GAGACCGCAACTGAAAAGTTGTGGACGAGATAGTGAGTCGCTGCCTGCAAAGACACAACT [ACGAG] here?
Its ligation selection enrichment is 0.745 ± 0.13.

How did the ligation selection enrichment turn out when GAGACCGCAACTGAAAAGTTGTGGACGATATAGTGAGTCGCTGCCTGCAAAGACACAACT [ACGAT] was run?
Its ligation selection enrichment is 16.5 ± 2.7.

How did the ligation selection enrichment turn out when GAGACCGCAACTGAAAAGTTGTGGACGAAATAGTGAGTCGCTGCCTGCAAAGACACAACT [ACGAA] was run?
Its ligation selection enrichment is 0.734 ± 0.16.

Which ligation selection enrichment does the source give for GAGACCGCAACTGAAAAGTTGTGGTCGGCATAGTGAGTCGCTGCCTGCAAAGACACAACT [TCGGC] here?
Its ligation selection enrichment is 0.232 ± 0.01.

With GAGACCGCAACTGAAAAGTTGTGGTCGGAATAGTGAGTCGCTGCCTGCAAAGACACAACT [TCGGA] as the variant, how does the ligation selection enrichment read?
The ligation selection enrichment was 0.233 ± 0.022.

GAGACCGCAACTGAAAAGTTGTGGTCGACATAGTGAGTCGCTGCCTGCAAAGACACAACT [TCGAC] was tested. Which ligation selection enrichment did it give?
The ligation selection enrichment was 1.74 ± 0.36.

With GAGACCGCAACTGAAAAGTTGTGGTCGAAATAGTGAGTCGCTGCCTGCAAAGACACAACT [TCGAA] as the variant, how does the ligation selection enrichment read?
Its ligation selection enrichment is 0.975 ± 0.19.

How did the ligation selection enrichment turn out when GAGACCGCAACTGAAAAGTTGTGGTCGATATAGTGAGTCGCTGCCTGCAAAGACACAACT [TCGAT] was run?
The ligation selection enrichment was 13.3 ± 3.8.

GAGACCGCAACTGAAAAGTTGTGGTCGAGATAGTGAGTCGCTGCCTGCAAAGACACAACT [TCGAG] was tested. Which ligation selection enrichment did it give?
Its ligation selection enrichment is 0.7035 ± 0.0067.

GAGACCGCAACTGAAAAGTTGTGGACCCAATAGTGAGTCGCTGCCTGCAAAGACACAACT [ACCCA] was tested. Which ligation selection enrichment did it give?
Its ligation selection enrichment is 0.152 ± 0.013.

How did the ligation selection enrichment turn out when GAGACCGCAACTGAAAAGTTGTGGACCCCATAGTGAGTCGCTGCCTGCAAAGACACAACT [ACCCC] was run?
Its ligation selection enrichment is 0.194 ± 0.0053.

With GAGACCGCAACTGAAAAGTTGTGGACCCTATAGTGAGTCGCTGCCTGCAAAGACACAACT [ACCCT] as the variant, how does the ligation selection enrichment read?
The ligation selection enrichment was 0.379 ± 0.15.

With GAGACCGCAACTGAAAAGTTGTGGACCCGATAGTGAGTCGCTGCCTGCAAAGACACAACT [ACCCG] as the variant, how does the ligation selection enrichment read?
The ligation selection enrichment was 0.752 ± 0.054.

For GAGACCGCAACTGAAAAGTTGTGGTCCCCATAGTGAGTCGCTGCCTGCAAAGACACAACT [TCCCC], which ligation selection enrichment is on record?
Its ligation selection enrichment is 0.279 ± 0.026.

With GAGACCGCAACTGAAAAGTTGTGGTCCCGATAGTGAGTCGCTGCCTGCAAAGACACAACT [TCCCG] as the variant, how does the ligation selection enrichment read?
Its ligation selection enrichment is 0.46 ± 0.093.

For GAGACCGCAACTGAAAAGTTGTGGTCCCAATAGTGAGTCGCTGCCTGCAAAGACACAACT [TCCCA], which ligation selection enrichment is on record?
Its ligation selection enrichment is 0.209 ± 0.054.

How did the ligation selection enrichment turn out when GAGACCGCAACTGAAAAGTTGTGGTCCCTATAGTGAGTCGCTGCCTGCAAAGACACAACT [TCCCT] was run?
The ligation selection enrichment was 0.324 ± 0.076.

For GAGACCGCAACTGAAAAGTTGTGGCCCCCATAGTGAGTCGCTGCCTGCAAAGACACAACT [CCCCC], which ligation selection enrichment is on record?
Its ligation selection enrichment is 0.199 ± 0.004.

GAGACCGCAACTGAAAAGTTGTGGCCCCAATAGTGAGTCGCTGCCTGCAAAGACACAACT [CCCCA] was tested. Which ligation selection enrichment did it give?
The ligation selection enrichment was 0.14 ± 0.0052.

With GAGACCGCAACTGAAAAGTTGTGGCCCCGATAGTGAGTCGCTGCCTGCAAAGACACAACT [CCCCG] as the variant, how does the ligation selection enrichment read?
Its ligation selection enrichment is 0.49 ± 0.0033.

With GAGACCGCAACTGAAAAGTTGTGGCCCCTATAGTGAGTCGCTGCCTGCAAAGACACAACT [CCCCT] as the variant, how does the ligation selection enrichment read?
The ligation selection enrichment was 0.419 ± 0.21.
